Measured values published in the Immune Epitope Database (IEDB).

Biological target: HLA-A*02:01
Test: IEDB peptide-MHC binding, purified MHC/competitive/radioactivity; ≥ and ≤ were set here for values at or beyond the usual limits of such assays
Conditions: source organism: Influenza A virus

FVEALARSI and QIAILVTTV are within 1.5-fold of each other in IC50: 1020 nM for the first, 1090 nM for the second.

Same assay, conditions: source organism: Mammarenavirus brazilense

Going from FQLIFFLTL to QLIFFLTLA, the IC50 falls from 353 nM to 122 nM (2.9-fold). The second is the more potent here.

Going from LTSLGLLYTV to GQLFSFFEEV, the IC50 falls from 218 nM to 33 nM (6.6-fold). The second is the more potent here.

Compared with QLFSFFEEV, CMVNHSTYYV is 6.1-fold higher in IC50: 12 nM for the first, 73 nM for the second. The first is the more potent here.

First: NLSNCVHPAV
Second: TLFFTTTLFL
The IC50 of the first is 2.8-fold lower: 153 nM for the first, 423 nM for the second. The first is the more potent here.

Same assay, conditions: source organism: Mammarenavirus choriomeningitidis

Going from YLISIFLHLV to NISGYNFSL, the IC50 rises from 5.8 nM to 642 nM (110-fold).

SLAADLEKL was tested, and the IC50 was 45 nM.

Same assay, conditions: source organism: Mammarenavirus juninense

First: SLFLHLVGI
Second: KMKCFGNTAV
The IC50 of the first is 2000-fold lower: 1.5 nM for the first, 2930 nM for the second.

Going from FMISFDDIAV to FQFFVFLAL, the IC50 rises from 5.4 nM to 675 nM (120-fold). The first is the more potent here.

Same assay, conditions: source organism: Mammarenavirus lassaense

SIISTFHLSI and LMDCIMFDAA are within 1.5-fold of each other in IC50: 714 nM for the first, 595 nM for the second.

First: RMAWGGSYIA
Second: RLLGTFTWTL
The IC50 of the first is 58-fold higher: 294 nM for the first, 5.1 nM for the second. The second is the more potent here.

Same assay, conditions: source organism: Mammarenavirus machupoense

ALTIACMTV and EALNIALVAV are within 1.5-fold of each other in IC50: 332 nM for the first, 341 nM for the second.

Compared with FLQEALNIA, NLTEMQEAV is 79-fold higher in IC50: 6.9 nM for the first, 547 nM for the second.

First: AMPGVLSYVI
Second: SLIKSTLQV
The IC50 of the first is 9.9-fold higher: 2450 nM for the first, 248 nM for the second.

Same assay, conditions: source organism: Mammarenavirus whitewaterense

Going from NASYITPYV to CMINDTHFLL, the IC50 falls from 263 nM to 66 nM (4-fold). The second is the more potent here.

First: MIITAVNSLI
Second: FLKMRRIFGV
The IC50 of the first is 6.8-fold higher: 438 nM for the first, 64 nM for the second.

GLVDVCFWST gave an IC50 of 71 nM.

Same assay, conditions: source organism: Vaccinia virus WR

Compared with KTIIDPDFV, KIADDRIVV is 52-fold lower in IC50: 346 nM for the first, 6.6 nM for the second. The second is the more potent here.

Going from VLAIDFGNGA to YTYLIGEKI, the IC50 rises from 1440 nM to 5000 nM (3.5-fold). The first is the more potent here.

Going from FIILLLAIV to ILSLFLISLV, the IC50 falls from 596 nM to 2.9 nM (210-fold).

YANNDKFRL and IITNAGTCTV are within 1.5-fold of each other in IC50: 587 nM for the first, 454 nM for the second.

LIYSMEFTNL and ELVRYIELV are within 1.5-fold of each other in IC50: 345 nM for the first, 291 nM for the second.

Going from LTVLGLGLSL to GIKSVVVPI, the IC50 falls from 1930 nM to 869 nM (2.2-fold). The second is the more potent here.

Going from GLKKIIQRV to ELQKFSFKI, the IC50 falls from 1700 nM to 167 nM (10-fold). The second is the more potent here.

Compared with IMYTYFSNT, SIRFHIKEL is 27-fold higher in IC50: 57 nM for the first, 1560 nM for the second.

First: FILHRLHEI
Second: SVVIYDFLV
The IC50 of the first is 1.7-fold lower: 0.65 nM for the first, 1.1 nM for the second. The first is the more potent here.

First: PVNAINDRL
Second: TINNLKMML
The IC50 of the first is 18-fold higher: 3460 nM for the first, 193 nM for the second.

Going from IIAIVFVFI to GTGYYKYFI, the IC50 rises from 241 nM to 1650 nM (6.8-fold).

Compared with KMCTVSDYI, YLLCCNYKL is 100-fold lower in IC50: 36 nM for the first, 0.36 nM for the second. The second is the more potent here.

First: ALMAITKNV
Second: FIEHLGEGI
The IC50 of the first is 570-fold lower: 8.4 nM for the first, 4820 nM for the second.

Compared with KLVDICDRIV, SIEGELESL is 120-fold higher in IC50: 32 nM for the first, 3940 nM for the second.

Compared with AMTAFFGEL, IVLYNGVNYL is 4.5-fold higher in IC50: 50 nM for the first, 225 nM for the second. The first is the more potent here.

Going from YLVDVETIGV to FMIITSTKTI, the IC50 rises from 0.17 nM to 1480 nM (8700-fold). The first is the more potent here.

First: FIKQGFNNLV
Second: YIIRVTTEL
The IC50 of the first is 3.3-fold higher: 119 nM for the first, 36 nM for the second. The second is the more potent here.

YTDEVYDYL and YTYAFTKKV are within 1.5-fold of each other in IC50: 21 nM for the first, 16 nM for the second.

Going from DIIDFLEGA to ILTREMGFLV, the IC50 falls from 445 nM to 7 nM (64-fold).

First: ILRKIFYSV
Second: ILSPPINAPI
The IC50 of the first is 3.3-fold higher: 126 nM for the first, 38 nM for the second.

Compared with YTDSIQDLL, NIIDWQFAI is 170-fold lower in IC50: 933 nM for the first, 5.4 nM for the second. The second is the more potent here.

Going from FILTAILFFM to FTFTIYTDEV, the IC50 rises from 0.12 nM to 352 nM (2900-fold). The first is the more potent here.

Compared with HLIFSYAFL, DTVFDYYVL is 1.9-fold lower in IC50: 105 nM for the first, 54 nM for the second.

Going from TLFLLFLEI to FIDSYLQKL, the IC50 falls from 56 nM to 24 nM (2.3-fold). The second is the more potent here.

GLDLENLYA and HLEWLLGFI are within 1.5-fold of each other in IC50: 117 nM for the first, 173 nM for the second.

Compared with FLTAALPVKL, LLFILFYFA is 4.5-fold lower in IC50: 384 nM for the first, 85 nM for the second. The second is the more potent here.

Going from ALLSRFFNM to FVLVDNVDFA, the IC50 rises from 0.61 nM to 75 nM (120-fold). The first is the more potent here.

Going from NIYCLEYINT to SLSSIRFHI, the IC50 falls from 882 nM to 11 nM (80-fold).

Going from TLWAIINTI to FVFRSPFIV, the IC50 falls from 9.4 nM to 4.6 nM (2-fold).

Going from YTQDELINV to RVIGLCIRI, the IC50 rises from 7.3 nM to 17 nM (2.3-fold). The first is the more potent here.

Going from LLEIHQYPA to TLYDFDYYI, the IC50 falls from 98 nM to 0.18 nM (540-fold).

First: AALGGSVNI
Second: KANCTAESST
The IC50 of the first is 1.9-fold lower: 1460 nM for the first, 2760 nM for the second. The first is the more potent here.

Compared with KLITFLFVI, ILTAILFFM is 2.3-fold higher in IC50: 15 nM for the first, 35 nM for the second. The first is the more potent here.

Going from GMLFVNDLM to IMVTDTINT, the IC50 rises from 467 nM to 2360 nM (5.1-fold).

Going from FLLLTSIPI to TLVAIFSYI, the IC50 rises from 0.11 nM to 863 nM (7800-fold). The first is the more potent here.

Going from ELMYIFAAL to NIVWEKKSLV, the IC50 falls from 108 nM to 63 nM (1.7-fold).

Going from FLCLLMKLSI to RISGSNIVI, the IC50 rises from 2.1 nM to 3670 nM (1700-fold).

First: MTPSPFYTV
Second: AVTKTDGIPI
The IC50 of the first is 230-fold lower: 6.4 nM for the first, 1460 nM for the second.

CLCSFHNDA and ELVFIKPPLI are within 1.5-fold of each other in IC50: 4140 nM for the first, 3300 nM for the second.

Going from VTMVDKPTEL to ILSNYVKTL, the IC50 falls from 3360 nM to 313 nM (11-fold).

Compared with RVETSPRPT, FLHNYILYA is 3600-fold lower in IC50: 1960 nM for the first, 0.54 nM for the second. The second is the more potent here.

Compared with MLVNRMQRI, YLPLSVFII is 7.7-fold lower in IC50: 48 nM for the first, 6.2 nM for the second. The second is the more potent here.

Compared with ALAKNASEL, VLDTTLYAV is 120-fold lower in IC50: 73 nM for the first, 0.6 nM for the second. The second is the more potent here.

Going from MLYFAGGLSV to SLNRTIVTKV, the IC50 rises from 0.35 nM to 67 nM (190-fold).

First: KLMIYGLPWM
Second: VTINNLKMML
The IC50 of the first is 280-fold lower: 11 nM for the first, 3060 nM for the second.

Compared with IILAISALL, VTLQKVLHV is 52-fold higher in IC50: 12 nM for the first, 622 nM for the second. The first is the more potent here.

First: KINPTLDNI
Second: YVSTGESSIL
The IC50 of the first is 5.6-fold lower: 244 nM for the first, 1360 nM for the second. The first is the more potent here.

Compared with SIINRDIIV, HMYFTFFDV is 77-fold lower in IC50: 699 nM for the first, 9.1 nM for the second.

First: KLVSISNFI
Second: FTTTSEVVDM
The IC50 of the first is 300-fold lower: 6.3 nM for the first, 1890 nM for the second. The first is the more potent here.
